Target: T1, 重组人CD47带his标签的蛋白 (human, UniProt Q08722 19-139, limits assumed)
T1 construct: Immunogen and ELISA coating antigen; also called 重组人CD47 his标签蛋白; 检测抗原; not shown: his tag
Experiment: indirect ELISA; CD47-his coated at 3, 1.5, 0.75 and 0.375 mg/L; K=(N-1)/(N*AB'-AB), mean of 6 K values

T1 sequence (Q08722 19-139 limits assumed): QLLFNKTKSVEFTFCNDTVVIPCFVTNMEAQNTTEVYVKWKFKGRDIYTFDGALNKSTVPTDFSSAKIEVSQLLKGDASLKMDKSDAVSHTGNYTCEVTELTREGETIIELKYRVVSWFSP

Ka: 1.39e+08 M⁻¹
B1: 单克隆细胞株7G7分泌的鼠抗人CD47单克隆抗体 (antibody, V domains shown)
VH: VKLQQSGAELARPGASVKLSCTASGYTFTDYYINWVRQRTGQGLEWIGDINPGRGKTYYIEKFKGKATLTADKSSSTAYMQLSSLTSEDSAVYFCARGGLRRFDYWGQGTTVTVSS
VL: DIELTQSPAIMSVSPGEKVTMTCRASSSVSSSYLHWYQQKSGVSPKLWIYSTSTLASGVPARFSGSGSGTSYSLTISSVEAADAATYYCQQYSGYPYTFGGGTKVEIKR

— CN113501874A (SANGON BIOTECH SHANGHAI CO LTD, dated 2021)
